Test results taken from PMC3751566.

Key:
syntaxin4 [1] = target: syntaxin4 (UniProt P70452); assay: Munc18c IP, syntaxin4 blot; details: reference: wild type Munc18c (WT and R cells), insulin
syntaxin4 [2] = target: syntaxin4 (UniProt P70452); assay: syntaxin4 IP, Munc18c blot (reciprocal); details: reference: wild type Munc18c (WT and R cells), insulin

binding against the reference (syntaxin4 [1]; sites Y218,Y219) | binding against the reference (syntaxin4 [2]; sites Y218,Y219) | binding against the reference (syntaxin4 [1]; sites Y521) | binding against the reference (syntaxin4 [2]; sites Y521) | Substance
stronger | stronger |  |  | Munc18c (from UniProt Q60770) Y218/219F, insulin
 |  | stronger | stronger | Munc18c (from UniProt Q60770) Y521F, insulin
